# B1: HDV Ribozyme (parent)
# chain: GGCCGGCAUGGUCCCAGCCUCCUCGCUGGCGCCGGCUGGGCAACAUUCCGAGGGGACCGUCCCCUCGGUAAUGGCGAAUGGGACCCA
# Variants of: B1
# Assay: self-cleavage, relative activity (ratio to wild type); higher = more cleavage; co-transcriptional
row,Variant,self-cleavage
1,GGCCGGCAUGGUCCCAGCCUCCUCACUGGCGCCGGCUGGGCAACAUUCCGAGGGGACCGUCCCCUCGGUUAUGGCGAAUGGGACCCA,0.17
2,GGCCGGCAUGGUCCCAGCCUCCUCGCUGGCGCCGGCUGGGCAACAUUCCGAGGGGACCGUCCCCUCGGUAAAGGCAAAUGGGACCCA,0.759
3,GGCCGGCAUGGUCCCAGCCUCCUCGCUGGCGCCGUCUGGGCAACAUUCCGAGGGGACCGUCCCCUCGGUAAUGGCGAAUGGGGCCCA,0.241
4,GGCCGGCAUGGUCCCAGCCUCCUCGCUGGCGCCGGCUGGGCAACAUUCCGAGGGGACCGUCGCCUCGGUAAUGGCGAAUGGGACCGA,1.14
5,GGCCGGCAUGGUCCCAGCCUCCUCGCUGGCUCCGGCUGGGCAACAUGCCGAGGGGACCGUCCCCUCGGUAAUGGCGAAUGGGACCCA,0.32
6,GGCCGGCAUGGUCCCAGCCUCCUCGCUGGCGCCGGCUGGACAACAGUCCGAGGGGACCGUCCCCUCGGUAAUGGCGAAUGGGACCCA,0.554
7,GGCCGGCAUGGUCCCAGACUCCUCGCUGGCGCCGGCUGGGCUACAUUCCGAGGGGACCGUCCCCUCGGUAAUGGCGAAUGGGACCCA,0.0437
8,GGCCGGGAUGGUCGCAGCCUCCUCGCUGGCGCCGGCUGGGCAACAUUCCGAGGGGACCGUCCCCUCGGUAAUGGCGAAUGGGACCCA,0
9,GGCCGGCAUGGUCCCAGCCUCCUCGCUGGCGCCGGCUGGGCAACAUUCCGAGGGGACGGUCCCCUCGGUAAAGGCGAAUGGGACCCA,0.594
10,GGCCGGCAUGGUCCCAGCCUCCUCGCUGGCGCCGGCUGGGCAACAUUCCGAGGGGACCGUCCCCUGGGUAAUGGCGAAUGGGAACCA,0.923
11,GGACGGCAUGGUCCCAGCCUCCUCGCUGGCGCCGGCUGGGCAACAUUCCGAGGGGACCGUCCCCACGGUAAUGGCGAAUGGGACCCA,0.641
12,CGCCGGCAUGGUCCCAGCCUCCUCGCUGGCGCCGGCUGGGCAACAUGCCGAGGGGACCGUCCCCUCGGUAAUGGCGAAUGGGACCCA,0.128
13,CGCCGGCAUGGUCCCAGCCUCCUCGCUGGCGCCGGCUGGGCAACAUUCCGAGGGGACCGUCCCCUCGGUAAUUGCGAAUGGGACCCA,0.0426
14,GGCCGGCAUGGUCCAAGCCUCCUCGCUGGCGCCGGCUGGGCAACAUUCCGAGAGGACCGUCCCCUCGGUAAUGGCGAAUGGGACCCA,0.866
15,GGCCGUCAUGGUCCCAGCCUCCUCGCUGGCGCCGGCUGGGCAACAUUCCGAGGGGACCGCCCCCUCGGUAAUGGCGAAUGGGACCCA,0.525
16,GGCCGGCAUGGUCCCAGUCGCCUCGCUGGCGCCGGCUGGGCAACAUUCCGAGGGGACCGUCCCCUCGGUAAUGGCGAAUGGGACCCA,0.277
17,GCCCGGCAUGGUCCCAGCCUCCUCGCUGGCGCCGGCUGGGCAACAUUCCGAGGGGACCGUCCCCUCGGUAAUGGCUAAUGGGACCCA,0.0455
18,GGCCAGCAUGGUCCCAGCCUCCUCGCUGGCGCCGGCUGGGCAACAUUCCGAGGGGACCGUCCCCUCGGUAAUGGCGAAUGGGACUCA,0.142
19,GGCCGACAUGGUCCCAGCCUCCUCGCUGGCGCCGGCUGGGCAACAUUCCGAGGGGAACGUCCCCUCGGUAAUGGCGAAUGGGACCCA,0.966
20,GGCCGGCAUGGUCCCAGCCUCCUCGCUGGCGCCGGCUGGGCAUCAUUCCGAGGGGACCGUCCCCUCGGUAAUGGCGAAGGGGACCCA,0.162
21,GGCCGGCAUGGUCCCAGUCUCCUCGCUGGCGCCGGCUGGGCAACAUUCCGCGGGGACCGUCCCCUCGGUAAUGGCGAAUGGGACCCA,0.901
22,GGCCGGCAUGGGCCCAGCCUCCUCGCUGGCGCCGGCUGGGCAUCAUUCCGAGGGGACCGUCCCCUCGGUAAUGGCGAAUGGGACCCA,0.0639

row,Variant,self-cleavage
1,GGCCGGCAUGGUCCCAGCCUCCUCGCUGGCGCCGGCUGGGCAACAUUCCGAGGGGAUCGUCCCCUCGGUAAUGGCGAAUGUGACCCA,0.353
2,GGCCGGCAUGGUCCCAGCCUCAUCGCUGGCGCCGGCUGGGCAACAUUCCGAGCGGACCGUCCCCUCGGUAAUGGCGAAUGGGACCCA,0.157
3,GGCCGGCAUGGACCCAGCCUCCUCGCAGGCGCCGGCUGGGCAACAUUCCGAGGGGACCGUCCCCUCGGUAAUGGCGAAUGGGACCCA,0.791
4,GGCCGGCAUGGUCCCAGCCUCCUCGCUGGCGCCGGCUGGGCAACAUUCCGAGGGGACCGUCCCCUCGCUAAUGGCAAAUGGGACCCA,1.04
5,AGCCGGCUUGGUCCCAGCCUCCUCGCUGGCGCCGGCUGGGCAACAUUCCGAGGGGACCGUCCCCUCGGUAAUGGCGAAUGGGACCCA,0
6,GGCCGGCAUGGUCCCAGCCUACUCGCUGGCGCCGGCUGGGGAACAUUCCGAGGGGACCGUCCCCUCGGUAAUGGCGAAUGGGACCCA,0
7,GGCCGGCAUGGUCCCAGCCUCCUCGCUGGCGCCGGCUGGGGAACAUUCCGAGGGGACCGUCCCCUCGGUAGUGGCGAAUGGGACCCA,0.554
8,GGCCGGCAUGGUCCCAGCCUCCUCGCUGGGGCCGGCUGGGCAACAUUCCGAGUGGACCGUCCCCUCGGUAAUGGCGAAUGGGACCCA,0.103
9,GGCCGGCAUGGUCCCAGCCUCUUCGCUGACGCCGGCUGGGCAACAUUCCGAGGGGACCGUCCCCUCGGUAAUGGCGAAUGGGACCCA,0.249
10,GGCCGGCAUGGUCCCAGCCUCCUCGCUGGCGCCGGCUGGGCCACAUUCCGAGGGGACCGUCCCCGCGGUAAUGGCGAAUGGGACCCA,0.831
11,GGCCGGCAUGGUCCCAGCCUCCUCGCUGGCGCCGGCUGGACAACAUUCCGAGGGGACCGUCCCUUCGGUAAUGGCGAAUGGGACCCA,0.925
12,GGCCGGCAUGGUCCCAGCCUCCUCGCUGGCUCCGGCUGGGCAACAUUCCGAGGGGACCGUCCCCUCGGUAAUGGUGAAUGGGACCCA,0.0665
13,GGCCGGCAUGGUCGCAGCCUCCUCGCUGGCGCCGGCAGGGCAACAUUCCGAGGGGACCGUCCCCUCGGUAAUGGCGAAUGGGACCCA,0.0489
14,GGCCGGCAUGGUCCCGGCCUCCUCGCUGGAGCCGGCUGGGCAACAUUCCGAGGGGACCGUCCCCUCGGUAAUGGCGAAUGGGACCCA,0.702
15,GGCCGGCAGGGUCCCAGCCUCCUCGCUGGCGCCGGCUGGGCAACAUUCCGAGGGGACCGUCCCCUCGGUAACGGCGAAUGGGACCCA,0.415
16,GGCCGGCAUGGUCCCAGCAUCCUCGCUGGCGCCGGUUGGGCAACAUUCCGAGGGGACCGUCCCCUCGGUAAUGGCGAAUGGGACCCA,0.0468
17,GGCCGGCAUGGUUCCAGCCUCCUCGCUGGCGCCGGCUGGGCAACAUUCCCAGGGGACCGUCCCCUCGGUAAUGGCGAAUGGGACCCA,0.636
18,GGCCCGCAUGGUCCCAGCCUCCUCGCUGGCGCCGGCUGGGCAACAUUCCGGGGGGACCGUCCCCUCGGUAAUGGCGAAUGGGACCCA,0.262
19,GGCCGGCAUGGUCCCAGCCUACUCGCUGGCGCCCGCUGGGCAACAUUCCGAGGGGACCGUCCCCUCGGUAAUGGCGAAUGGGACCCA,0
20,GGCCGGCAUGGUCCCAGCCUCCUCGCUGGCGCCGGCUGGGCAACAUACCGAGGGGACCGCCCCCUCGGUAAUGGCGAAUGGGACCCA,0.88
21,GGCCGGCAUGGUCCCAGCCUCCUUGCUGGCGCCGGCUGGGCAACAUUCCGAGGGGACCGUCCCCUCGGUAAUGGCGAAUGGGACCCC,0.739
22,GGCCGGCAUGGUCCCAGCCGCCUCACUGGCGCCGGCUGGGCAACAUUCCGAGGGGACCGUCCCCUCGGUAAUGGCGAAUGGGACCCA,0

row,Variant,self-cleavage
1,GGCCGGCAUGGUCCCAGCCUCCUCGCUGGCGCCGGCUGGGCCACAUUCCGAGGGGACCGUCCCCUCGGUAAUGGCGAAUGGGAUCCA,0.224
2,GGCCGGCAUGUUCCCGGCCUCCUCGCUGGCGCCGGCUGGGCAACAUUCCGAGGGGACCGUCCCCUCGGUAAUGGCGAAUGGGACCCA,0.309
3,GGCCGGCAUGGUCCCAGCCUCCUCUCUGGCGCCGGCUGGGCAACAUUCCGAGGGGACCGUCCCCUCGGUAAUGGCGUAUGGGACCCA,0.0923
4,GGCCGGCAUGGUCCCAGCCACCUCGCUGGCGCCGGCUGGGCAACAUUCCGAGGGGACCGUCCCCUCGGUAAUUGCGAAUGGGACCCA,0.0354
5,GGCCGGCAUGGUCCCAGCCUCCUCGCUGUCGCCGGCUGGGCAACAUGCCGAGGGGACCGUCCCCUCGGUAAUGGCGAAUGGGACCCA,0
6,GGCCGGCAUGGUCCCAGCCUCCUCGCUGGCUCCAGCUGGGCAACAUUCCGAGGGGACCGUCCCCUCGGUAAUGGCGAAUGGGACCCA,0.0804
7,GGCCGGCAUGUUCCCAGCCUCCUCGCUGGCGCCGGCUGGGCAACAUUCCGAGGGGACCGACCCCUCGGUAAUGGCGAAUGGGACCCA,0.277
8,GGCCGGCAUGGUCCCAGCCUCCUCGCUGGCGCCAGAUGGGCAACAUUCCGAGGGGACCGUCCCCUCGGUAAUGGCGAAUGGGACCCA,0.0978
9,GGCCGGCAUGGUCCCAGCGUCCUCGCUGGCGCCGGCUGGGCAACAUUCCGAGGGGACCGUCCCCUCGGUAAUGGCGAAUGGCACCCA,0.0594
10,GGCCGGCAUGGUCCCAGCCUCCUCGCUGGCGCCGGCUGGGCAACAUUCCGAGGGGACCGUCCCCUCGGUAAUGUCGAAUGGGACGCA,0.617
11,GGCCGGCAUGGUCCCAGCCUCCUCGCUGGCUCCGGCUGGGCAACAUUCCGAGGGGAUCGUCCCCUCGGUAAUGGCGAAUGGGACCCA,0.383
12,GGCCGGCAUGGUCCCAGCCACCUCGCUGGCGCCGGCUGGGCAACAUUCCGAGGGGACCGUACCCUCGGUAAUGGCGAAUGGGACCCA,0.111
13,GGCUGGCAUGGUCCCAGCCUCCUCGCUGGCGCCGGCUGGGCAACAUUCCGAGGGGACCGUCCCCUCGGUAAUGUCGAAUGGGACCCA,0.163
14,GGCCGGCAUGGUCCCAGCCUCCUCGCUGCCGCCGGCUGGGCAACAUGCCGAGGGGACCGUCCCCUCGGUAAUGGCGAAUGGGACCCA,0
15,GGCCGGCAUGGUCCCAGCCUCCUCGCUGGCGCCGGCUGGGCAACAUUCCGAGGGGACCGUCCCCGCGGUAAUGGCGAAUGGAACCCA,0.162
16,GGCCGGCAUGGUCCCAGCCUCCUCGCUGGCGCCGGCUGGGCAACAUUCCGAGGUGACCUUCCCCUCGGUAAUGGCGAAUGGGACCCA,1.14
17,CGCCGGCAUGGUCCCAGCCUCCUCGCUGGCGCCGGCUGGGCAACAUUCCGAGGGGACCGUCCCCUCGGUAAUGGCGAAUGUGACCCA,0.192
18,GGCCGGCCUGGUCCCAGCCUCCUCGGUGGCGCCGGCUGGGCAACAUUCCGAGGGGACCGUCCCCUCGGUAAUGGCGAAUGGGACCCA,1.11
19,GGCCGGCUUGGUCCCAGCCUCCUCGCUAGCGCCGGCUGGGCAACAUUCCGAGGGGACCGUCCCCUCGGUAAUGGCGAAUGGGACCCA,0.0369
20,GGCCGGCAUGGUCCCAGCCUCAUCGCUGGCGCCGGCUGGGCAACAUUCCGAGGGUACCGUCCCCUCGGUAAUGGCGAAUGGGACCCA,0.353
